{"source": "patent US20200317739", "key": {"[1]": {"system": "truncated FBP1^1-371 protein"}, "[2]": {"system": "truncated FBP1^1-443 protein"}, "[3]": {"system": "truncated FBP1^185-443 protein"}, "[4]": {"system": "truncated FBP1^185-644 protein"}, "[5]": {"system": "truncated FBP1^372-644 protein"}}}
{"substance": "purified recombinant EV71 viral protease wild-type 2A^pro", "values": [{"measurement": "in vitro proteinase cleavage assay (10 ug 2A^pro, 37 C, 4 hours)", "setting": "FBP1-G345-362K", "result": "in vitro 2A^pro cleavage occurs on mutant FBP1-G345-362K"}, {"measurement": "in vitro proteinase cleavage assay (10 ug 2A^pro, 37 C, 4 hours)", "setting": "FBP1-G364-380K", "result": "but not on mutant FBP1-G364-380K"}, {"measurement": "in vitro proteinase cleavage assay (10 ug 2A^pro, 37 C, 4 hours)", "setting": "FBP1-G364K", "result": "in comparison with FBP1-G364K, FBP1-G366K, FBP1-G374K and FBP1-G375K, FBP1-G371K could not be cleaved by 2A^pro"}, {"measurement": "in vitro proteinase cleavage assay (10 ug 2A^pro, 37 C, 4 hours)", "setting": "FBP1-G366K", "result": "in comparison with FBP1-G364K, FBP1-G366K, FBP1-G374K and FBP1-G375K, FBP1-G371K could not be cleaved by 2A^pro"}, {"measurement": "in vitro proteinase cleavage assay (10 ug 2A^pro, 37 C, 4 hours)", "setting": "FBP1-G371K", "result": "FBP1-G371K could not be cleaved by 2A^pro, as shown by the absence of Cp-N and Cp-C cleavage products"}, {"measurement": "in vitro proteinase cleavage assay (10 ug 2A^pro, 37 C, 4 hours)", "setting": "FBP1-G374K", "result": "in comparison with FBP1-G364K, FBP1-G366K, FBP1-G374K and FBP1-G375K, FBP1-G371K could not be cleaved by 2A^pro"}, {"measurement": "in vitro proteinase cleavage assay (10 ug 2A^pro, 37 C, 4 hours)", "setting": "FBP1-G375K", "result": "in comparison with FBP1-G364K, FBP1-G366K, FBP1-G374K and FBP1-G375K, FBP1-G371K could not be cleaved by 2A^pro"}, {"measurement": "in vitro proteinase cleavage assay of truncated FBP1 proteins", "setting": "[1]", "result": "both truncated FBP1^1-371 and FBP1^372-644 proteins were not cleaved by 2A^pro"}, {"measurement": "in vitro proteinase cleavage assay of truncated FBP1 proteins", "setting": "[2]", "result": "FBP1^1-443, FBP1^185-644 and FBP1^185-443 containing the Gly-371 cleavage site were cleaved by 2A^pro; a 38-kDa cleavage product was yielded from FBP1^1-443"}, {"measurement": "in vitro proteinase cleavage assay of truncated FBP1 proteins", "setting": "[3]", "result": "FBP1^1-443, FBP1^185-644 and FBP1^185-443 containing the Gly-371 cleavage site were cleaved by 2A^pro; 19-kDa cleavage product"}, {"measurement": "in vitro proteinase cleavage assay of truncated FBP1 proteins", "setting": "[4]", "result": "FBP1^1-443, FBP1^185-644 and FBP1^185-443 containing the Gly-371 cleavage site were cleaved by 2A^pro; 19-kDa cleavage product, and FBP1^185-644 also yielded a 33-kDa product"}, {"measurement": "in vitro proteinase cleavage assay of truncated FBP1 proteins", "setting": "[5]", "result": "both truncated FBP1^1-371 and FBP1^372-644 proteins were not cleaved by 2A^pro"}, {"measurement": "in vitro proteinase cleavage kinetics of [35S] methionine-labeled FBP1 (data not shown)", "setting": "wild-type FBP1 protein", "result": "Cp-N and Cp-C were detected after 15 minutes of incubation with 2A^pro, and the levels of Cp-N and Cp-C increased over the 4 hours of incubation"}, {"measurement": "in vitro proteinase cleavage of [35S] methionine-labeled FBP1 (SDS-PAGE, autoradiography)", "setting": "wild-type FBP1 protein", "result": "FBP1 was cleaved by 2A^pro in a dose-dependent manner that resulted in two major Cps, a 38-kDa Cp designated as Cp-N, and a 33-kDa Cp designated as Cp-C"}]}
